According to the DeepSol protein solubility set:

Test: soluble on expression in E. coli; label from the status in PepcDB or PDB records

Row | Sequence | soluble on expression in E. coli
1 | MGSDKIHHHHHHMNINPTEKLSQPIVEKVAIVGAGPGGLAAAIALRSQGIDVQIYEKAQEFRPAGTGLGLAPNGLNFLDAIAPGIVETLKGSGCEVHHTVLKNFRGETIRANASKYQEKYGQPLVTVWWYRLQQVLASRLPSDIVHLNHRCIGFEQDENGVEIRFDGEKSVYADLLIGADGVNSVIREILFGEGKPNYIGSMCWRAVIKYHHELFNDYELVFVKGNQQFMYLLNVGGGYMSWISRKFSPEYSLCHSADEVKSRILHELADWDESFQVVVQATPAEQIWEGPICDRPPLTHWSQGRVTLLGDAAHPMAPAMGQGANTTFEDAYELRECFSQSANLQEALTSYEQRRMQRTEIIQARSALGEMRYYESNTVASNGQREQTMSVNDDFHKWLYDYKPSATIKF | not soluble
2 | MSKIAKTAIISPKAEINKGVEIGEFCVIGDGVKLDEGVKLHNNVTLQGHTFVGKNTEIFPFAVLGTQPQDLKYKGEYSELIIGEDNLIREFCMINPGTEGGIKKTLIGDKNLLMAYVHVAHDCVIGSHCILANGVTLAGHIEIGDYVNIGGLTAIHQFVRIAKGCMIAGKSALGKDVPPYCTVEGNRAFIRGLNRHRMRQLLESKDIDFIYALYKRLFRPIPSLRESAKLELEEHANNPFVKEICSFILESSRGVAYKSSEYSSEEKQEE | soluble
3 | MDAIFNNNFEKYKDDPEMTRALMTSKESLEDENWDTYLQWFKENKYEVLEVKEGKNKSTLTVKATFNSFADIPNDDVMGIIFTEVYKASKNKIKSLDEEDDIFDEEFMINVTNKLMDKSKKETKEIKVYMDKVNGKWDLIEDEDNDDDIVNMELISTMTPLLEKFLEITTEFEGFEGF | not soluble
4 | MKFGNFLLTYQPPELSQTEVMKRLVNLGKASEGCGFDTVWLLEHHFTEFGLLGNPYVAAAHLLGATETLNVGTAAIVLPTAHPVRQAEDVNLLDQMSKGRFRFGICRGLYDKDFRVFGTDMDNSRALMDCWYDLMKEGFNEGYIAADNEHIKFPKIQLNPSAYTQGGAPVYVVAESASTTEWAAERGLPMILSWIINTHEKKAQLDLYNEVATEHGYDVTKIDHCLSYITSVDHDSNRAKDICRNFLGHWYDSYVNATKIFDDSDQTKGYDFNKGQWRDFVLKGHKDTNRRIDYSYEINPVGTPEECIAIIQQDIDATGIDNICCGFEANGSEEEIIASMKLFQSDVMPYLKEKQ | soluble
5 | MSLAAIDKTTVATVNGEKITLGEVDSHLKGVFAQMKSQYGDKYMDDPQVAQQILQQRQSVVQGLVTDKVLGIEADKLGIKPSEEEIKKKVDEQFENIKKGMGDNFDKALEAEGYTEDTFKDVIKNQVINQAVQDYIIKDVKVTDEDAQKYYDENKQQFVAKDSGVLTKHLLFENEEEAQKAYDEIQSGKTTFNDLFTKYENNKSENKKPIAENLGVVPAENSGLVQEFVDGLKPLKEGEISKPIKTQFGYHIIQAGATYEKGAQLPFDDVKSQIIQILKQQKDSEKFKADMDQWKKDLNVKVYDDKLQEGLKISEGHHHHHH | soluble
6 | TKEGQIKGKLLLPGGVKTCPVVLIIAGSGPTDMDGNSAIGNLRNNSLKFLAEGLAANGIASLRFDKRGIGTSASAGKEEAKLRFEDYVNDVTGWIDYLAKEKRFTTITVAGHSEGALIGMLACQNRPKVKGYISVAGAGRPAYEIIEAQVAAQQNPEAVRKEVASINGSLKNGKEVSDVPAYLQSLYRASVQPYLISWFKYNPRTVIASVKVPVLIVQGKNDIQVSVEDAELLKKGCPAAELLLIDKMNHVLKDCESKAVQQQMLTYGNPSLPVNSTLIASVSTFVKKLK | soluble
7 | MGSDKIHHHHHHMPSWFTNVQLGFDMATSLTIVGAAVTWVIREKKQAEAEKVRGINQQVRSTSLKKVQDVLFEMEDKFSVLINETQTYENMIDNRVRKVNDQLDFSRLNLAIKRDDQFLIKAIDRLQAIREELGQFYELIQVRRYSLIPLLDAIEEGDKYIGVFQQNIDEVGDAYNQVTSGNVSLLKELEAVISMLNKQFGDELVDVSDEVKKELFQKISTDETFMKPIQSIIYDEDYFYWVQRFVPAGREDDYLEKVVRPSKIEDKELCSEVMVHFILALIGKNHELISQVLRTASGSVMKARIECKDILISLSAISHKLVMDNNGETLEKVIAKYESEEYFGRNVTIR | not soluble
8 | MGSDKIHHHHHHMNTTHAVPSITPNNDPWEAYDDIKMFGKPTLTNIEVTTTTLCNMRCEHCAVGYTLQTKDPDALPLDLLLRRLDEIPHLRAFSITGGEPMLSKKSVESYVVPLLRYAHERGARTQINSNLTLNIERYEKILPYLDVLHISHNYGSINDFTDIGFAVMERKPSIEQREALFHRMVENAKMLTQEGVFVSAETMINKRTLPHLEKIHEQIVSMGCQRHEVHPMYPSDFASALDVASLDEIRKGIHRLLDARDKKTWMLFGTLPFYPCSDQEEDLMLLKRLYGEPNVTVRNDPDGRSRLNVNLFDGNIIVTDFGDTPPLGNIMTTSFIEAYEKWQHSEISKELSCHCPMAECLGPNILVKNTYYRGVDFHKRKAVLHK | not soluble
9 | MSADYPRDLIGYGNNPPHPHWPGDARIALSFVLNYEEGGERCVLHGDKESEAFLSEMVAAQPLQGVRHMSMESLYEYGSRAGVWRLLKLFKRRNVPLTVFAVAMAAQRNPEVIRAMVADGHEICSHGYRWIDYQYMDEAQEREHMLEAIRILTELTGQRPVGWYTGRTGPNTRRLVMEEGGFLYDSDTYDDDLPYWDPASTAEKPHLVIPYTLDTNDMRFTQVQGFNNGEQFFQYLKDAFDVLYEEGATAPKMLSIGLHCRLIGRPARMAALERFIQYAQSHDKVWFARREDIARHWHREHPFQETEA | soluble
10 | ITASGENRNAINDLLGAMCYDEETARTYQGYVAELDNPHTPETEEYGISSFVFKGDRPFDRQRLIAALRSTRGIVRSKGHCWISDRIDMVQVWHQAGPDLRIAPAGYWQSAGITPSNEIVVIGVNFDHAQAQQLLNDAMLSDSEVQQLLSTADAAKS | not soluble
11 | MSLQNAYWLTNVRLETGYKFNNEVVTGTETALHHLLIQDGKIEKIVLADVPLQTEYETKDAKELLVLPSFVENHFHLDKTKLGGPWEACTPVKNIIERLELEQQELPILAQTTGERAELLLRNILNAGSTHIRTHVNIDPYIGLKNLESVRQTLENMKDAFTYEIVAFPQHGLLRTEAHSLMREAMKMGATLVGGVDPATVDNNIEKSLFDMMEIAVEANADVDLHLHDAGHLGIYTIKKLAQYTEEASWDGRVAVSHAFSLGDVSKEEGADMADLLAERGMSIITTVPINRNMPPVPLLTEKGVPISLGCDSMFDSWGPFGNADIFERVGRLAEKYRWMDEKSLASSLAYITGGKTPLDQEGNQVWPKVGDKADFVFLQATCSAEAIARRAKRPAVMRDGKIVAGSLQHVQGVLIEGHHHHHH | soluble
12 | MGSDKIHHHHHHMDYTRYVVQPGDSIYKIANAYKIEMSDIINLNHLKHPDRIYPGQILLLPTYEFKDTLPGEIPEPNFTYAMWLFDVYAGKDSELSAVTTYLYQAVVLDRPEFDELLRPIAYDELRHLEQLAWCIRFLGVDPRYGSFSKGRWFDWRSRYLNYSTELCVILDHNMKDEAAAVKHYTDLAQKIPIPEIQTILLQLAADEERHYQCLAQAKTRFCGCGSSQTQHIKESSNGEEL | not soluble
13 | MSLTAELQALDAAHHLHPFSANNALGEEGTRVITRARGVWLNDSEGEEILDAMAGLWCVNIGYGRDELAEVAARQMRELPYYNTFFKTTHVPAIALAQKLAELAPGDLNHVFFAGGGSEANDTNIRMVRTYWQNKGQPEKTVIISRKNAYHGSTVASSALGGMAGMHAQSGLIPDVHHINQPNWWAEGGDMDPEEFGLARARELEEAILELGENRVAAFIAEPVQGAGGVIVAPDSYWPEIQRICDKYDILLIADEVICGFGRTGNWFGTQTMGIRPHIMTIAKGLSSGYAPIGGSIVCDEVAHVIGKDEFNHGYTYSGHPVAAAVALENLRILEEENILDHVRNVAAPYLKEKWEALTDHPLVGEAKIVGMMASIALTPNKASRAKFASEPGTIGYICRERCFANNLIMRHVGDRMIISPPLVITPAEIDEMFVRIRKSLDEAQAEIEKQGLMKSEGHHHHHH | not soluble
14 | MKGMRGPGESRDTAMAVEQDIFDAVVMADERFHGEGYQEGYEEGSSLGIVEGKRYGMVHGAKIGSEIGCYRGFALAWKCLLHSGAGEKDSRKMKVVEALIALLQDFPYDDPTYEKLHEDLDRIRGKFRQLCSLLNVQPDFKVTPGGSGLAF | soluble
15 | SAKFSKQSWGLENEALIVRCPRQGKPSYTVDWYYSQTNKSIPTQERNRVFASGQLLKFLPAAVADSGIYTCIVRSPTFNRTGYANVTIYKKQSDCNVPDYLMYSTVSGSEKNSKIYCPTIDLYNWTAPLEWFKNCQALQGSRYRAHKSFLVIDNVMTEDAGDYTCKFIHNENGANYSVTATRSFTVKDEQGFSLFPVIGAPAQNEIKEVEIGKNANLTCSACFGKGTQFLAAVLWQLNGTKITDFGEPRIQQEEGQNQSFSNGLACLDMVLRIADVKEEDLLLQYDCLALNLHGLRRHTVRLSRKNPSKECF | soluble
16 | MLTSKPEIKNSELNSYLVGGAVRDKLLNRPIKDEDYLVVGASIEQMIKLGYHQVGKDFPVFLHPKTKAEYALARTERKQGQGYTGFSCYFAPDVTIEQDLLRRDLTVNAMAMDHNGKIIDPYNGQNDLNDRILRHVSDAFIEDPLRVLRVARFAARYHKYGFTIADETLTLMQEISASGELKCLTPERVWQEMQLSLADGGANSDTNSGNPEVFFEVLQQCNALEELWPELAVLWGIPNPALWHPEICSGIHTMMVLQQAVLLTQAIPDEHSDHRTAVRFAALCHDLGKGVTSDKLWPSHKGHETSGLPLVERICGQLKVPSHYKQLALKVCEFHLHCHKAFELKASTLLKMFNQLDIWRKPEEFDLFLMACKSDFLGRLGFENRAYPQEQYLQAAVKAARKVTAQPFLEKGLQGLAIKEAMAKERLSVIANIKADFAHLNPTPQ | not soluble
17 | MRNSTDYSPLYRSFIGFDHLASLIDKASQPGKQSSYPPYNIELLAENQYRITMAVAGFREEDIDIESKDNGLIIVGTKQPPANSTQESEATTRHFLHQGIAERNFERKFQLGEHVKVIGAFMENGLLHVDLEREIPEALKSRKIAINGKSLLNGNS | not soluble
18 | MGSSHHHHHHSSGLVPRGSHMRTVTGAILAMNLEVKDFVHRDVEEADRRLREIGARKILLQLPDGLKPYAFDYFTYLSQRYDVILSSSPVYGACDIGPSYLYDRVDAIVQVGHSIMRNVKYPRPVIFIEHYRTVDVEDINTEALKNYRRIGLIYSIQYRPVADRVKRILESKGFEVIIGRSDRRMTYDGQVLGCNFSSVHSVEAEVEAFVIVSTGSFHALGSQISTERPVFLLDLNEMSLRSMEKEADTFIRKRYAQIYRAMDAKRICFLVDTRIGQRREKLARMLMDRARDLGKEAVLAYTDNISDQDIQNMGCDLAVYTGCPRVPIDDQDRFTVPVLTPAEFSMAFFKSSKRYVLDEIVSVDEFTDQ | soluble
19 | MATANNPPSGLLDPTLCEDRIFYNILEIEPRFLTSDSVFGTFQQSLTSHMRKLLGTWMFSVCQEYNLEPNVVALALNLLDRLLLIKQVSKEHFQKTGSACLLVASKLRSLTPISTSSLCYAAADSFSRQELIDQEKELLEKLAWRTEAVLATDVTSFLLLKLVGGSQHLDFWHHEVNTLITKALVDPLTGSLPASIISAAGCALLVPANVIPQDTHSGGVVPQLASILGCDVSVLQAAVEQILTSVSDFDLRILDSY | soluble
20 | MDESVDPVELLLRLLIRHKPHLKPYAYRQDSWQRVLDEYNRQTGSRYRQSRTLKTKFRRLKDLFSADRAQFSPSQLKLMGALLDEAPEHPRPRTKFGNESSSSLSSSSFIKSHPGPDPFQQLSSAEHPNNHSSDDEHSGSQPLPLDSITIGIPPTLHTIPMILSKDNDVGKVIKSPKINKGTNRFSETVLPPQMAAEQSWSDSNMELEICLDYLHNELEVIKKRQEDFECKVLNKLNIIEALLSQMRPPSQGDKI | soluble
21 | MKKGLKMRALERSDLRFIHELNNNRNIMAYWFEEPYESYDELEELYRKHIHDDAERRFVVEDADGILIGLVELIEINYIHRSAEFQII | not soluble
